Source: the nanobody polyreactivity screen of Harvey et al. (2022)

Test: yeast display, Sf9 membrane polyspecificity reagent, FACS + sequencing; frameworks hold sequencing errors
Outline: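 In a synthetic yeast display library (Saccharomyces cerevisiae BJ5465), nanobody expression was induced with galactose for 36–48 hours. FACS gates were set low and high (top ~1%) using anti-HA fluorescence for expression and streptavidin fluorescence for binding of the Sf9 membrane reagent. Each polyreactivity label is drawn from the gate of origin.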
With “QVQLVETGGGLVQAGGSLRLSCAASGPTFSRNAKGWYRQAPGKERELVATISRGGGITFYADSVKGRFTISRDNAKNTVYLQMNSLKPEDTAVYYCNADVRYVGLRRIVDYWGQGTQVTVSS” the “polyreactivity (PSR sort gate)” value was “high polyreactivity”. With “QVQLVETGGGLVQAGGSLRLSCAASGRIFGHYVMGWYRPAPGTERELVAAITWRGGSTYYADSVKGRFTISRDYAKNTVYLQMNSLKPEDTAVYDCNASPSEVRRRYDYWGQGTQVTVSS” the “polyreactivity (PSR sort gate)” value was “high polyreactivity”. In the case of “QVQLVETGGGLVQAGGSLRLSCAASGRIFLGYAMGCYRQAPGKERELVAAISGRGGRTNYADSVKGRFTISRDNAKNTVYLQMNSLKPEDTAVYYCATVPYTASRYEYWGQGTQVTVSS”, the “polyreactivity (PSR sort gate)” value is reported as “high polyreactivity”. For “QVQLVETGGGLVQAGGSLRLSCAASGRIFVFYTKGWYRQAPGKERELVARITGGGSTSYADSVKGRFTISRDNAKNTVYLQMNSLKPEDTAVYYCAAVTRRRYYGHIYGYWGQGTQVTVSS”, the “polyreactivity (PSR sort gate)” value was “high polyreactivity”. In the case of “QVQLVETGGGLVQAGGSLRLSCAASGRIFWWYAMGWYRQAPGKERELVAAISTGSRTYYADSVKGRFTISRDNAKNTVYLQMNSLKPEDTAVYYCVADGLYSVSRSSIFEYWGQGTQVTVSS”, the “polyreactivity (PSR sort gate)” value is reported as “low polyreactivity”. For “QVQLVETGGGLVQAGGSLRLSCAASGRTFSRNAMGWYRQAPGKERELVAAISQRGVSTYYADSVKGRFTISRDNAKNTVYLQMNSLKPEDTAVYYCNTRGTYRYDYWGQGTQVTVSS”, the “polyreactivity (PSR sort gate)” value was “low polyreactivity”. In the case of “QVQLVETGGGLVQAGGSLRLSCAASGSIFDWYAMGWYRQAPGKEGELVAAISSGDSTYYADSVKGRFTISRDNAKNTVYLKMNSLKPEDTAVYYCAAVTKLSGIRYNYWGQGTQVTVSS”, the “polyreactivity (PSR sort gate)” value is reported as “low polyreactivity”. With “QVQLVETGGGLVQAGGSLRLSCAASGSIFRDNAMGWYRQAPGKESELVAAINVRDGDTFYADSVKGRFTISRDNAKNTVYLQMNSLKPEDTAVYYCAVAGATSYFAYDSWGQGTQVTVSS” the “polyreactivity (PSR sort gate)” value was “low polyreactivity”. In the case of “QVQLVETGGGLVQAGGSLRLSCAASGSIFSGNAMGRSRPAPGKERELVGAITGSGGSTYYADSVKGRFTITRDNAKNTVYLQMNSLKPVDTAVYYCAVLFRTFYYWGQGTQVTVSS”, the “polyreactivity (PSR sort gate)” value is reported as “high polyreactivity”. In the case of “QVQLVETGGGLVQAGGSLRLSCAASGSIFVLYAMVWSRQAPGKERELVAAISKRTGSSYYADSVKGRFTISRDHAKHTVYLQTNSLKPEDTAVYYCAARGRQYRYYDLDYWGQGTQVTLSS”, the “polyreactivity (PSR sort gate)” value is reported as “low polyreactivity”. For “QVQLVETGGGLVQAGGSLRLSCAASGSIFWSNAMGWYRQAPGKERELVAAITSGGRTYYADSVKGRFTISRDNAKNTVYLQMNSLKPEDTAVYYCAAYWNSATGFDYWGQVTQVTVSS”, the “polyreactivity (PSR sort gate)” value was “high polyreactivity”. With “QVQLVETGGGLVQAGGSLRLSCAASGSSFGSYAMGWYREAPGKERELVAAISSSGASTYYADSVKGRFTISRDNAKITVYLQMNSLKPEDTAVYYCNAARRYPTRGGYWGQGTQVTVSS” the “polyreactivity (PSR sort gate)” value was “high polyreactivity”. With “QVQLVETGGGLVQAGGSLRLSCAASGSTFFINAMGWYRQAPGKERELVAAITSTDSTTYADSVKGRFTISRDNAKNTVYLQMNSLKPEDTAVYYCAKESIGQDPVSGAWARHEYDYWGQGTQVTVSS” the “polyreactivity (PSR sort gate)” value was “low polyreactivity”. With “QVQLVETGGGLVQAGGSLRLSCAASGSTFGWNAMGWYRQAPGKERELVAAITGGGSTYYADSVKGRFTISRDNAKNTVYLQMNSLKPEDTAVYYCEGDYWGQGTQVTVSS” the “polyreactivity (PSR sort gate)” value was “low polyreactivity”. With “QVQLVETGGGLVQAGGSLRLSCAASGSTLAPYVMGWYRQAPGKERELVAVISTRTGRTYYADSVKGRFTISRDNAKNTVYLQMNSLKPEDTAVYYCAAPVYPYQVQTYDYWGQGTQVTVSS” the “polyreactivity (PSR sort gate)” value was “high polyreactivity”. In the case of “QVQLVETGGGLVQAGGSLRLSCAASGTLSSYAMGWYRPAPGTERELVAAISLSGGSTYADSVKGRFTISRDNAKNTVYLQMNSLKPEDTAVYYCAATSSFRYDYWGQGTQVTVSS”, the “polyreactivity (PSR sort gate)” value is reported as “low polyreactivity”. In the case of “QVQLVETGGGLVQAGGSLRLSCAASRSTIADNAMGWYRQAPGKERELVAAITRSGVRTYYADSVKGRFTISRDNAKNTVYLQMNSLKPEDTAVYYCAKRTYPSRIYDYWGQGTQVTVSS”, the “polyreactivity (PSR sort gate)” value is reported as “low polyreactivity”. For “QVQLVETGGGLVQAGGSLRLSCAPSGITFYVYAMGWYTQAPGKERELVAAISSGSSTYYADSVKGSFTISRDNAKNTVYLQMNSLKPEDTAVYYCAARYRKYLSEYCGQGTQVTVSS”, the “polyreactivity (PSR sort gate)” value was “high polyreactivity”. For “QVQLVETGGGLVQAGGSLRLSCAPSGNTIIRYAMGWYRQAPGKERELVAAISYSGGRTYYADSVKGRFTISRDNAKNTVYLQMNSLKPEDTAVYYCNAASRYGGDYWGPGTQVTVSS”, the “polyreactivity (PSR sort gate)” value was “high polyreactivity”. In the case of “QVQLVETGGGLVQAGGSLRLSCDASVSTFRYYTMGWYRQAPGKERELVASIRRGGSTNYADSVKGRFTISRDNAKNTVYLQMNSLKPEDTAVYYCNAKKGVYNGDAAKYDYWGPGTQVTVSS”, the “polyreactivity (PSR sort gate)” value is reported as “high polyreactivity”. For “QVQLVETGGGLVQAGGSLRLSCPASGRIFEDNAMGWYRQEPGKERELVAAIDFSGGDTYYADSVKGRFTISRDNAKNTVYLQMNSLKPEDTAVYYCAAGRSGWGYDSWGQGTQVTVSS”, the “polyreactivity (PSR sort gate)” value was “low polyreactivity”. With “QVQLVETGGGLVQAGGSLRVSCAASGSTFSGYAMGWYRQAPGKERELVAAITRSGGRTYYADSVKGRFTISRDNAKNTVYLQMNSLLPEDTAVYYCATDRAYYHSYGRFGYWGQGTHVTVSS” the “polyreactivity (PSR sort gate)” value was “high polyreactivity”. In the case of “QVQLVETGGGLVQAGGTLRLSCAPSGYTIYFYALGWDIQAPGTERELVAAISGSGGRTYYADSVKGRFTISRDNAKNTVYLQMNSLKPEDTAVYYCAARKYKRIYRISSGIGYYWGQGTQVTVSS”, the “polyreactivity (PSR sort gate)” value is reported as “high polyreactivity”. In the case of “QVQLVETGGGLVQAGVSLRLSCAASGRTWGYDMGWYRQAPGKERELVAAIRNGASTYYADSVKGRFTISRDNAKNTVYLQMNSLKPEDTAVYYCAADYTVRVVATYDYWGQGTQVTVSS”, the “polyreactivity (PSR sort gate)” value is reported as “low polyreactivity”. In the case of “QVQLVETGGGVVQAGGSLRISCAASGRIFLYYTMGWYRQAPGIERELVATIRSGDSTIYADAVKGRFTISRDNAKNTVYLQMNTLTPEDTAVYYCAADWDIFQQGANGAPYDYWGQGTQVTVSS”, the “polyreactivity (PSR sort gate)” value is reported as “low polyreactivity”. In the case of “QVQLVETGGVLVQAGGSLRLSCAASGSIFQQNAMGGYRQAPGKERELVASISSGGRTNYADSVKGRCTISRDNAKNTVYLQMNSLKPEDTAVYYCAKTRIRYKPLHFYYWGQGTQVTVSS”, the “polyreactivity (PSR sort gate)” value is reported as “low polyreactivity”. In the case of “QVQLVETGRGLVQAGGSLRLSCAASGLILVPNTMGWYRQAPGTERELVAAISYSGGGPYYADSVKGRFTLSRDNATNTVYLQMNSLKPEDTAVYSCAAYDKRESPPYGYWGQGTQVTVSS”, the “polyreactivity (PSR sort gate)” value is reported as “low polyreactivity”. With “QVQLVETGRGLVQAGGSLRLSSAASGSTFGPNAMGWYRQAHGKVRELVAAITWSGSTTYYADSVKGRFTISRDIAKNTVYLQMNSLKPEDTPVYYCAALRGYRSNWRYGYWGQGTQVTVSS” the “polyreactivity (PSR sort gate)” value was “low polyreactivity”. For “QVQLVETWGGLVQAGGSLRLSCPASGSIFPRKAMGWYRQAPGKERELVAGISSGGSTNYADSVKGRFTISRDNAKNTVYLQMNSLKPEDTAVYYCAARQWIRNLGFGYSIYNYWGQGTQVTVSS”, the “polyreactivity (PSR sort gate)” value was “high polyreactivity”. For “QVQLVGSGGGLVQAGGSLRLSCAASGRTFRAYAMGWYRQAPGKERELVAAIRSSGGSTYADSVKGRFTISRDNAKNTVYLQMNSLKPEDTAVYYFAKPIAPARNAYPAYDYWGQGTQVTVSS”, the “polyreactivity (PSR sort gate)” value was “high polyreactivity”. In the case of “QVQLVGSGGGLVQAGGSLRLSCAASGSTIKYYAMGWYRQAPGKERELVARITSDGGSTFYADSVKGRFTISRDNAKNTAYVQMNSLKPEDPAVYYCNTAYAFRHWWFYPMDYWGQGTQVTVSA”, the “polyreactivity (PSR sort gate)” value is reported as “high polyreactivity”. For “QVQLVHSGGRLVQAGGRLRLSCAASGSTFSSYARGRYIQGPRKERELVAAISWNGGSTYYADSVKGRFTISRDNAKNTVYLQMNSLKPQDTAVYYCAAIYFRNTYSYGMDYWGQGTQVTVSS”, the “polyreactivity (PSR sort gate)” value was “high polyreactivity”. With “QVQLVKSGGGLVQAGGSLRLSCAASVRTILYNAIGWYRQAPGKESELVAAITGGGSTYYADSVKGRFTISRDNAKNTVYLQMNSLKPEDTAVYYCAADLSVVRYDYWGQGTQVTVSS” the “polyreactivity (PSR sort gate)” value was “low polyreactivity”. For “QVQLVLSGGGLVQAGGSLRLSCAASGNTIIRYAMGWYRQEPGKESELVAAISYSGGRTYYADSVKGRFTISRDNAKNTVYLQMNSLKPEDTAVYYCAARYYRSGYRKKIYYWGQGTQVTVSS”, the “polyreactivity (PSR sort gate)” value was “high polyreactivity”. With “QVQLVQSFGGLVQAGGSLRLSCAASGRIFWPYAMGWYRQPPGKERELVAAITGSGSRTYYADSVKGRFTISRDYAKNTVYLHMNSLNREDTAVYYCAATSSTDYDYWGQGTQVTVSS” the “polyreactivity (PSR sort gate)” value was “low polyreactivity”. For “QVQLVQSGAGLVQAGGSLRLSCAPSGRTFWRYPMGLYRQAPGKERELVASISARGGSTYYADSVKGRFTISRDNAKNTVYLQMNSLKPEDTAVYYCKRQSWFTVGGFTYRYDYWGQGTQVTVSS”, the “polyreactivity (PSR sort gate)” value was “high polyreactivity”. In the case of “QVQLVQSGGGLVQAGGSLRLICAASGSNFYGNAMGWYRQAPGKERELVAAISRGGGYTYYADSVKGRFTISRDNAKNTVYLEMNSLKPEDTAVYYCDATRYLHPWYYPYYYWGQVTQVTVSS”, the “polyreactivity (PSR sort gate)” value is reported as “low polyreactivity”. For “QVQLVQSGGGLVQAGGSLRLRCAASGRIFTPYAMGWNRQAPGQDRELVAAISASGTRTYYADSVKGRFTISRDNAKNTVYLQMKSLQAEDSAVYSCAAYKSGEPSDYWGQGTQVTVSS”, the “polyreactivity (PSR sort gate)” value was “high polyreactivity”. In the case of “QVQLVQSGGGLVQAGGSLRLSCAASGFTFRFYAMGWYRQATGKERELVASINWSGGRTYYADSVKGRFTISRDNAKNTVYLEMNSLKPVDTAVYYCATQYLIQTKYYSWGQGTQVTVSS”, the “polyreactivity (PSR sort gate)” value is reported as “high polyreactivity”. In the case of “QVQLVQSGGGLVQAGGSLRLSCAASGNIFKGYAMRWYRQAPVKERELVAAISKSGGSTYYADSVKGRFTMSRDNAKNTVYLQLNSLKPADTAVYYSNTYTYAGYNYWGQGTQVTVSS”, the “polyreactivity (PSR sort gate)” value is reported as “high polyreactivity”. In the case of “QVQLVQSGGGLVQAGGSLRLSCAASGRIFKYNAMGWYRQAPGKERDLVAVITSGGSTYYADSVKGRFTISRDNAKNTFYLQMNSQKPEDTAVYSCAKKYYKVHKFDYWGQGTQVTVSS”, the “polyreactivity (PSR sort gate)” value is reported as “low polyreactivity”.
